Results on one molecule are retold here after US20240018526, “DEOXYRIBONUCLEIC ACID-BASED BIOSENSOR AND ASSOCIATED METHODS” (FACible BioDiagnostics LLC, published 2024).

The data set deals with SARS-CoV-2 spike glycoprotein S1 (SARS-CoV-2, UniProt P0DTC2 P0DTC2:14-685).

B1: N6-D2-biotin aptamer (ssDNA)
DNA: CACGGTTCGAGCTGGTACTAAACTTCGCTAAACAACACGCAGCATTTCATCGGGTCCAAAAGGGGCTGCTCGGGATTGCGGATATGGACCCGTCAGCTTA
modifications: 5'-biotin (5BiosG), as SEQ ID NO 96
B1: the binding result is given as “binds”.
